Key:
[1] = target: mbIL-7-1 (CD52 signal peptide-IL-7-linker 1-BCMA extracellular domain-CD52); assay: flow cytometry, share of stained cells; TIL sample T001-1 electroporated with mbIL-7-1
[2] = target: mbIL-7-2 (CD52 signal peptide-IL-7-linker 2-BCMA extracellular domain-CD52); assay: flow cytometry, share of stained cells; TIL sample T002-2 electroporated with mbIL-7-2
[3] = target: mbIL-7-2 (CD52 signal peptide-IL-7-linker 2-BCMA extracellular domain-CD52); assay: flow cytometry, share of stained cells; TIL sample T003-2 electroporated with mbIL-7-2
[4] = target: mbIL-7-7 (CD52 signal peptide-IL-7-linker 2-BCMA extracellular domain-CD8 transmembrane domain); assay: flow cytometry, share of stained cells; TIL sample T003-7 electroporated with mbIL-7-7
mbIL-7-7 (CD52 signal peptide-IL-7-linker 2-BCMA extracellular domain-CD8 transmembrane domain), sequence (chain, as listed by the source limits assumed): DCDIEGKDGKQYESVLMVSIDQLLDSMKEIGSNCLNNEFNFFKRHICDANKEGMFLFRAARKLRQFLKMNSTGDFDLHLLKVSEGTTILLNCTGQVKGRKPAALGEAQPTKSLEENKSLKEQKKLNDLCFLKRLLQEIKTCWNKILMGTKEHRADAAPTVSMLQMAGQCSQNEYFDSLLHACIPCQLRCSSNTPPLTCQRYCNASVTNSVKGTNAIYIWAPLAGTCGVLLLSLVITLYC

[5] = target: mbIL-7-1 (CD52 signal peptide-IL-7-linker 1-BCMA extracellular domain-CD52); assay: flow cytometry, share of stained cells; TIL sample T004-1 electroporated with mbIL-7-1
[6] = target: mbIL-7-3 (CD52 signal peptide-IL-7-linker 4-point-mutated BCMA extracellular domain-CD52); assay: flow cytometry, share of stained cells; TIL sample T005-3 electroporated with mbIL-7-3
mbIL-7-3 (CD52 signal peptide-IL-7-linker 4-point-mutated BCMA extracellular domain-CD52), sequence (chain, as listed by the source limits assumed, change not shown): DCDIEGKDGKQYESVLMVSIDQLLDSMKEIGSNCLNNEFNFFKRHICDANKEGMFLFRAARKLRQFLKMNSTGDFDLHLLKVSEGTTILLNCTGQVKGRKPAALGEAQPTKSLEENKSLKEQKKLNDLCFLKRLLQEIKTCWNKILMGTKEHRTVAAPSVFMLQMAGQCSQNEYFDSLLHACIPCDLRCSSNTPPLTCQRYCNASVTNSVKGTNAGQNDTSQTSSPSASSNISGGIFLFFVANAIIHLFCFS

[7] = target: mbIL-7-5 (CD52 signal peptide-IL-7-point mutation BCMA extracellular domain-linker 4-CD52); assay: flow cytometry, share of stained cells; TIL sample T006-5 electroporated with mbIL-7-5
mbIL-7-5 (CD52 signal peptide-IL-7-point mutation BCMA extracellular domain-linker 4-CD52), sequence (chain, as listed by the source limits assumed, change not shown): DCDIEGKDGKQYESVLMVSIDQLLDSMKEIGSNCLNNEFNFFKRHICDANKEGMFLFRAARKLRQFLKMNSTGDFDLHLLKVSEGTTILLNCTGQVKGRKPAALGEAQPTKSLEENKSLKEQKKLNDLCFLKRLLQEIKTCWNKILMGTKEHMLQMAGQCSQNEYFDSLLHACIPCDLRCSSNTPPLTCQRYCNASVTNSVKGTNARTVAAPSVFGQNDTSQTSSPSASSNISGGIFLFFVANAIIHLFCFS

[8] = target: mbIL-7-6 (CD52 signal peptide-IL-7-linker 3-BCMA extracellular domain-CD52); assay: flow cytometry, share of stained cells; TIL sample T007-6 electroporated with mbIL-7-6
mbIL-7-6 (CD52 signal peptide-IL-7-linker 3-BCMA extracellular domain-CD52), sequence (chain, as listed by the source limits assumed): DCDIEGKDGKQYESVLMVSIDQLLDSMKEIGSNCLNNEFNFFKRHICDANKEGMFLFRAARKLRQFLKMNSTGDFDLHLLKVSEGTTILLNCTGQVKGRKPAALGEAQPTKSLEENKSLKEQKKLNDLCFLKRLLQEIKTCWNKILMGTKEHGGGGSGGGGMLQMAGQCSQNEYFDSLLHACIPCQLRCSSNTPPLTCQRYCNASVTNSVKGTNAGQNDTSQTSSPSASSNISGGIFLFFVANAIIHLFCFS

[9] = target: mbIL-7-8 (IL-7 signal peptide-IL-7-linker 2-truncated BCMA extracellular domain-CD52); assay: flow cytometry, share of stained cells; TIL sample T008-8 electroporated with mbIL-7-8
mbIL-7-8 (IL-7 signal peptide-IL-7-linker 2-truncated BCMA extracellular domain-CD52), sequence (chain, as listed by the source limits assumed): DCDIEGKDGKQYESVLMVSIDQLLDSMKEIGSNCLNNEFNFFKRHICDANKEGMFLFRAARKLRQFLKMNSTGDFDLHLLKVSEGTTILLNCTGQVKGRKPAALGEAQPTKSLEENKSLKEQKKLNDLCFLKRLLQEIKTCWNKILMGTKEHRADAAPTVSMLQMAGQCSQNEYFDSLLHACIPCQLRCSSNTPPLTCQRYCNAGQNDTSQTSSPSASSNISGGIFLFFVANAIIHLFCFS

[10] = target: mbIL-7-3 (CD52 signal peptide-IL-7-linker 4-point-mutated BCMA extracellular domain-CD52); assay: flow cytometry, share of stained cells; TIL sample T009-3 electroporated with mbIL-7-3
[11] = target: mbIL-7-4 (CD52 signal peptide-IL-7-linker 5-truncated point-mutated BCMA extracellular domain-CD8 extracellular hinge region-CD52); assay: flow cytometry, share of stained cells; TIL sample T010-4 electroporated with mbIL-7-4
mbIL-7-4 (CD52 signal peptide-IL-7-linker 5-truncated point-mutated BCMA extracellular domain-CD8 extracellular hinge region-CD52), sequence (chain, as listed by the source limits assumed, change not shown): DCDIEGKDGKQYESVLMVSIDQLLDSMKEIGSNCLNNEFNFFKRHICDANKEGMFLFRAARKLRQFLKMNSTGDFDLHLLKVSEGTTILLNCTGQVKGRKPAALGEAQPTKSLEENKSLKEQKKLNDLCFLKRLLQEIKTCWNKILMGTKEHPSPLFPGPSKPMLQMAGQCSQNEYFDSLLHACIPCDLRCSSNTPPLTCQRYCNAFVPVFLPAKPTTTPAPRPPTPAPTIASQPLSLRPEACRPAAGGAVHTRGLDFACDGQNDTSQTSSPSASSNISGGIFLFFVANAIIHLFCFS

[12] = target: mbIL-7-9 (CD52 signal peptide-IL-7-linker 5-truncated point-mutated BCMA extracellular domain-CD52); assay: flow cytometry, share of stained cells; TIL sample T011-9 electroporated with mbIL-7-9
mbIL-7-9 (CD52 signal peptide-IL-7-linker 5-truncated point-mutated BCMA extracellular domain-CD52), sequence (chain, as listed by the source limits assumed, change not shown): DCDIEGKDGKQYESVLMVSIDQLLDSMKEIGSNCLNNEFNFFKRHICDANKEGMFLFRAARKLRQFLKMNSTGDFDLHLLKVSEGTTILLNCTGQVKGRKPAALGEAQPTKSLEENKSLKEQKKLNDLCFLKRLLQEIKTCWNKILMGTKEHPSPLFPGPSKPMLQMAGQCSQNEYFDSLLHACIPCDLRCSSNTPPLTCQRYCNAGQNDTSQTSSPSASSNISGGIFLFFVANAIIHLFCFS

[13] = target: mbIL-7-9 (CD52 signal peptide-IL-7-linker 5-truncated point-mutated BCMA extracellular domain-CD52); assay: flow cytometry, share of stained cells; TIL sample T012-9 electroporated with mbIL-7-9
[14] = target: mbIL-7-9 (CD52 signal peptide-IL-7-linker 5-truncated point-mutated BCMA extracellular domain-CD52); assay: flow cytometry, share of stained cells; TIL sample T013-9 electroporated with mbIL-7-9
[15] = target: mbIL-7-9 (CD52 signal peptide-IL-7-linker 5-truncated point-mutated BCMA extracellular domain-CD52); assay: flow cytometry, share of stained cells; TIL sample T014-9 electroporated with mbIL-7-9

mbIL-7-1 (CD52 signal peptide-IL-7-linker 1-BCMA extracellular domain-CD52), sequence (chain, as listed by the source limits assumed): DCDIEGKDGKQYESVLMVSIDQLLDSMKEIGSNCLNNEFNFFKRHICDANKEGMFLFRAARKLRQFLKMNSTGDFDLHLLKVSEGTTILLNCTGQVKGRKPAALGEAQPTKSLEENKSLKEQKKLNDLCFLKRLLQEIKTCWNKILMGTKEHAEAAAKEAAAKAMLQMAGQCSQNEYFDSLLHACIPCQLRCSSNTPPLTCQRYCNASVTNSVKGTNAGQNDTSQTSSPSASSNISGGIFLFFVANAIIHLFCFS
mbIL-7-2 (CD52 signal peptide-IL-7-linker 2-BCMA extracellular domain-CD52), sequence (chain, as listed by the source limits assumed): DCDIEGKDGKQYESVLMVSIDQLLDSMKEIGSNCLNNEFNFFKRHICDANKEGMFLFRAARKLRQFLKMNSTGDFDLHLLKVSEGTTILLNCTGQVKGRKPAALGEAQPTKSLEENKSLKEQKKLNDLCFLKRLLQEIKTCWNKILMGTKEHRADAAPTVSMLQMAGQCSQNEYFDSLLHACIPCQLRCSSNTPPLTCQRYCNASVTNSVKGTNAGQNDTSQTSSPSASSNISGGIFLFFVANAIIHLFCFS

Positive rate (%) [1]: 49.3% | Positive rate (%) [2]: 45.4% | Positive rate (%) [3]: 51.2% | Positive rate (%) [4]: 15.1% | Positive rate (%) [5]: 40.2% | Positive rate (%) [6]: 54.1% | Positive rate (%) [7]: 44.7% | Positive rate (%) [8]: 12.3% | Positive rate (%) [9]: 42.5% | Positive rate (%) [10]: 52% | Positive rate (%) [11]: 43.8% | Positive rate (%) [12]: 47.6% | Positive rate (%) [13]: 50.1% | Positive rate (%) [14]: 45.9% | Positive rate (%) [15]: 41.1%
Substance: BCMA flow antibody (purchased from Biolegend, catalog number 357504)

— patent publication EP4674954A1
